Target: T1, Rrp44 D171N/D551N (S. cerevisiae, UniProt Q08162 1-1001, D171N | D551N)
T1 sequence: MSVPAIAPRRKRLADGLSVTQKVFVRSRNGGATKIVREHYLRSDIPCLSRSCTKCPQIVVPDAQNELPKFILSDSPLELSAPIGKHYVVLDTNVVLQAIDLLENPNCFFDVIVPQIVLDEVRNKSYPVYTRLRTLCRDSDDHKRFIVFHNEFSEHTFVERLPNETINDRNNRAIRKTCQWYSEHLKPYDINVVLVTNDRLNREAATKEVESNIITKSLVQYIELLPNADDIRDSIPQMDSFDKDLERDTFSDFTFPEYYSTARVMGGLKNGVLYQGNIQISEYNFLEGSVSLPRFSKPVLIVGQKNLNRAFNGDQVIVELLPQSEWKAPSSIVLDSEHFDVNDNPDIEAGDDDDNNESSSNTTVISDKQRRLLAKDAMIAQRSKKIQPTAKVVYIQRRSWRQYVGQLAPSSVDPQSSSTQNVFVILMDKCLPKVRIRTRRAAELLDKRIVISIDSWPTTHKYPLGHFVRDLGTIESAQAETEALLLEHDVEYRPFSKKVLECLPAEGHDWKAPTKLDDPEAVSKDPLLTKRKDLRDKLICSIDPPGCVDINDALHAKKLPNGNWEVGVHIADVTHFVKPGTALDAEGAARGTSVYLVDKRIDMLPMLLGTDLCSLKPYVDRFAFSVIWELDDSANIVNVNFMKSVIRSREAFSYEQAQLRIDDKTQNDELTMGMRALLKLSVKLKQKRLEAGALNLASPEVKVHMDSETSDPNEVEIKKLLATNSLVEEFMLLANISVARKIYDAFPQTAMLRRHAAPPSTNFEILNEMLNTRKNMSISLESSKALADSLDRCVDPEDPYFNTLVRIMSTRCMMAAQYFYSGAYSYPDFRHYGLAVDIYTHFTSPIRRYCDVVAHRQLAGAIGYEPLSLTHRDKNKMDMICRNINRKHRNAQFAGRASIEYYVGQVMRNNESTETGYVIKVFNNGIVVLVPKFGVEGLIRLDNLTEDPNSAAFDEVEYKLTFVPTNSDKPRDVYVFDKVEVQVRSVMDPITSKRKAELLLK
Experiment: crystal structure

binding result: binds
B1: Rrp43 (natural protein, S. cerevisiae)
chain: MAESTTLETIEIHPITFPPEVLARISPELSLQRHLSLGIRPCLRKYEEFRDVAIENNTLSRYADAGNIDTKNNILGSNVLKSGKTIVITSITGGIIEETSAAIKDLDDFGEEELFEVTKEEDIIANYASVYPVVEVERGRVGACTDEEMTISQKLHDSILHSRILPKKALKVKAGVRSANEDGTFSVLYPDELEDDTLNETNLKMKRKWSYVLYAKIVVLSRTGPVFDLCWNSLMYALQSVKLPRAFIDERASDLRMTIRTRGRSATIRETYEIICDQTKSVPLMINAKNIAFASNYGIVELDPECQLQNSDNSEEEEVDIDMDKLNTVLIADLDTEAEETSIHSTISILAAPSGNYKQLTLVGGGAKITPEMIKRSLLLSRVRADDLSTRFNI
